The experiment deals with T1, cynomolgus TREM-1 (cTREM-1 protein, SPR analyte of Examples 9 and 11) (cynomolgus monkey).
T1 construct: Soluble analyte; also called cyno TREM1
T1 chain: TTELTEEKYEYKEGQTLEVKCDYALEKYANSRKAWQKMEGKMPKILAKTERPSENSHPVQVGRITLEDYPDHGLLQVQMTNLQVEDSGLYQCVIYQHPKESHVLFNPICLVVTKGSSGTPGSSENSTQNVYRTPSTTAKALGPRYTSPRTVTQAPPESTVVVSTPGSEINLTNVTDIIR
In words: SPR, mAb captured, cTREM-1 analyte. On the procedure: Binding studies were performed on a ProteOn Analyzer (BioRad) that measures molecular interactions in real time through surface plasmon resonance. Experiments were run at 25° C. and the samples were stored at 15° C. in the sample compartment. The signal (RU, response units) reported by the ProteOn is directly correlated to the mass on the individual sensor chip surfaces in six parallel flow cells. Anti-human Fc monoclonal or anti-murine Fc polyclonal antibody from Biacore human or mouse Fc capture kits were immobilized in horizontal direction onto flow cells of a GLM sensor chip according to the manufacturer's instructions. The final immobilization level of capture antibody was approximately 2600-6000 RU in different experiments. […] The GLM surface was regenerated after each injection cycle of analyte via two 18 s injections of 10 mM Glycine, pH 1.7 and 50 mM NaOH at 100 μl/min. This regeneration step removed the anti-TREM-1 antibody and any bound TREM-1 protein from the immobilized capture antibody surface, and allowed for the subsequent binding of the next interaction sample pair.

This is an account of results in patent US20210253697A1 (Novo Nordisk, published 2021).

B1: mAb 0121 (antibody, V domains shown)
VH: EVQLVESGGGLVQPGGSLKLSCAASGFTFSTYAMHWVRQASGKGLEWVGRIRTKSSNYATYYAASVKGRFTISRDDSKNTAYLQMNSLKTEDTAVYYCVRDMGQRRQFAYWGQGTLVTVSS
VL: DIVMTQSPDSLAVSLGERATINCRASESVDTFDYSFLHWYQQKPGQPPKLLIYRASNLESGVPDRFSGSGSGTDFTLTISSLQAEDVAVYYCQQSNEDPYTFGQGTKLEIK
notes: recombinant; also called 14F113/14F69 hz variant HC T93V; 14F113 hz variant HC T93V
Broadly, the Kd is the concentration at which binding is half-saturated. B1 registered a Kd of 0.94 nM.
